The values that follow come from patent US20100137420A1 (Johns Hopkins, published 2010).

The target in this assay is T1, protein A beads (UniProt P38507 37-477).
T1 construct: Used alone as a control in the immunodepletion; also called protein A beads alone
Put plainly: CSF incubated with protein A beads alone, SELDI-TOF read-out. The method, then: 20 μl of rabbit anti-human cystatin C or rabbit anti-fusin antisera (DakoCytomation, Carpinteria, Calif.) was bound to 10 μl of protein A beads equilibrated in PBS, pH 7.4, by rocking at room temperature for 1 hr. 10 μl of equilibrated protein A beads alone were used as another control. Each sample was washed three times with PBS pH=7.4. […] 30 μl of this CSF was added to each of the above sample and rocked for 1 hr at room temperature. 15 μl of the supernatant was applied to CM-10 arrays and analyzed as described above.

B1: C-terminal cleavage product of cystatin C lacking the last 8 amino acids (12.5 kD peak) in human cerebrospinal fluid (other)
chain: SSPGKPPRLVGGPMDASVEEEGVRRALDFAVGEYNKASNDMYHSRALQVVRARKQIVAGVNYFLDVELGRTTCTKTQPNLDNCPFHDQPHLKRKAFCSFQIYAVPWQGTMTL
notes: Endogenous fragment in CSF of MS/CIS patients; also called biomarker A
On to B1, for which the binding result was “no binding”.

B2: full-length cystatin C (13.4 kD peak) in human cerebrospinal fluid (other)
chain: SSPGKPPRLVGGPMDASVEEEGVRRALDFAVGEYNKASNDMYHSRALQVVRARKQIVAGVNYFLDVELGRTTCTKTQPNLDNCPFHDQPHLKRKAFCSFQIYAVPWQGTMTLSKSTCQDA
notes: also called biomarker J
On to B2, for which the binding result was “no binding”.
